Test results taken from paper PMC6861513, “Insight into the dimer dissociation process of the Chromobacterium violaceum (S)-selective amine transaminase” (Scientific Reports, 2019).

Target: the molecule itself
Experiment: crystal structure; PMP·Cv-ATA; holo-Cv-ATA crystals grown by sitting drop in 100 mM HEPES pH 7.5, 350 mM NaCl, 22.5% PEG 4000, 0.1 mM PLP, cryoprotected with 20 mM 1-(S)-phenylethylamine; space group P1; 1.67 Å

B1: Chromobacterium violaceum (S)-selective amine transaminase, wild type (enzyme)
chain: MQKQRTTSQWRELDAAHHLHPFTDTASLNQAGARVMTRGEGVYLWDSEGNKIIDGMAGLWCVNVGYGRKDFAEAARRQMEELPFYNTFFKTTHPAVVELSSLLAEVTPAGFDRVFYTNSGSESVDTMIRMVRRYWDVQGKPEKKTLIGRWNGYHGSTIGGASLGGMKYMHEQGDLPIPGMAHIEQPWWYKHGKDMTPDEFGVVAARWLEEKILEIGADKVAAFVGEPIQGAGGVIVPPATYWPEIERICRKYDVLLVADEVICGFGRTGEWFGHQHFGFQPDLFTAAKGLSSGYLPIGAVFVGKRVAEGLIAGGDFNHGFTYSGHPVCAAVAHANVAALRDEGIVQRVKDDIGPYMQKRWRETFSRFEHVDDVRGVGMVQAFTLVKNKAKRELFPDFGEIGTLCRDIFFRNNLIMRACGDHIVSAPPLVMTRAEVDEMLAVAERCLEEFEQTLKARGLA
notes: omega-transaminase / (S)-selective amine transaminase of Chromobacterium violaceum, GenBank WP_011135573, in pET28a(+); No tag cleavage is described; also called Cv-ATA; Cv-TA; source: E. coli BL21(DE3), purified (HisTrap FF crude, gel filtration on Superdex 200)
Question: Does B1 bind?
Answer: Result: binds
